From patent US6458539, “Photoselection of nucleic acid ligands” (Somalogic, Inc.)

Key:
[1] = target: PDGF (platelet derived growth factor) (UniProt P01127); experiment: filter; settings: 5-bromo-2'-deoxyuridine (BrdU) substituted for T
[2] = target: PDGF (platelet derived growth factor) (UniProt P01127); settings: 5-bromo-2'-deoxyuridine (BrdU) substituted for T; photocrosslinking rate, 308 nm
[3] = target: T1, bFGF(155) (basic fibroblast growth factor, FGF2) (Homo sapiens, UniProt P09038 SEQ:1-155); experiment: filter; 1xPBS, 2 mM MgCl2, 0.01% HSA, 1 mM DTT, 37 C; Table 7 gives a different KD of 1.3e-10 M; settings: tags: expressed in E. coli; Bachem California lot SN 433; label: 5'-32P
T1 sequence (P09038 134-288): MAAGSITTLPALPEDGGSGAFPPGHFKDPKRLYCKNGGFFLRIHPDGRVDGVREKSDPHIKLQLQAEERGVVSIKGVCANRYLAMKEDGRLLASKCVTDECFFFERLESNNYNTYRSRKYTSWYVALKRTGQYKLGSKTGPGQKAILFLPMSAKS
Description: (§1) Nitrocellulose filter binding was used to assess ligand affinity for bFGF_{(155)}. This was accomplished by first preparing 2,000 cpm/30 μL of 5'-^32P-radiolabeled material (≈1–5 fmol) of each sequence by dilution with 1×crosslink binding buffer (XLBB) (1×PBS/2 mM MgCl_2/0.01% HSA/1.0 mM dithiothreitol (DTT)) to give 2×DNA. Each 2×oligonucleotide sample was mixed with 30 μL of each bFGF_{(155)} concentration to be evaluated in a 96 well tray. bFGF_{(155)} concentrations were prepared by serial dilution with 1×XLBB. After incubation at 37° C. for 15 minutes, a multi-pipeter was used to load 40 μL of each DNA/bFGF_{(155)} mixture onto a pre-washed Gibco nitrocellulose binding curve apparatus followed by washing with a dissociation wash buffer. Bound DNA was then measured by phosphorimage and a binding curve for the percent bound DNA vs. [bFGF] was calculated by Kaleidograph ver. 3.09 software (Synergy Software Co., Reading, Pa).

[4] = target: VEGF (vascular endothelial growth factor) (UniProt P15692-4 P15692-4:27-191); experiment: filter; 1xPBS, 2 mM MgCl2, 37 C; settings: tags: R&D Systems; chain copies: 2; label: 5'-32P
Sequence of VEGF (vascular endothelial growth factor) (P15692 other isoform, or with tags, fused parts or gaps): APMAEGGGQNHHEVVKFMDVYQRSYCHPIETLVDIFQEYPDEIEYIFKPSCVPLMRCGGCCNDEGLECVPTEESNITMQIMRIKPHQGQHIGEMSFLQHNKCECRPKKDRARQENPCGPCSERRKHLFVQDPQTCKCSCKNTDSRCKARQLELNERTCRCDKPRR

[5] = target: T1, bFGF(155) (basic fibroblast growth …); experiment: filter; 1xPBS, 2 mM MgCl2, 0.01% HSA, 1 mM DTT, 37 C; Table 7 gives a different KD of 5.3e-9 M; Table 2 prints CACCC where SEQ 70 has CAGCC; settings: tags: expressed in E. coli; Bachem California lot SN 433; label: 5'-32P
Description: as §1

Sequence of PDGF (platelet derived growth factor) (P01127 82-190): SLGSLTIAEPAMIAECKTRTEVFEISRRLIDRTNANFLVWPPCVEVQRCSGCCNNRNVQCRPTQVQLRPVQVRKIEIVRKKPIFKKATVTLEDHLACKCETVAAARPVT

GGGAGGACGATGCGGGCGAAGGCACACCGAGTTCATAGTATCCCACAGACGACGAGCGGGA [06.15]
Kd ([1]; 1500-fold weaker than bFGF (Table 6), Table 3 states relative KD >1000): 200 nM | activity [2]: 65000 M⁻¹ s⁻¹

GGGAGGACGATGCGGTGACGTAAGAGTGTAATCGATGCAGCCTGGCAGACGACGAGCGGGA [06.50]
Kd ([1]; 53-fold weaker than bFGF): 280 nM | activity [2]: 61000 M⁻¹ s⁻¹

B1: 06.15 (ssDNA)
DNA: GGGAGGACGATGCGGGCGAAGGCACACCGAGTTCATAGTATCCCACAGACGACGAGCGGGA
modifications: 5-bromo-2'-deoxyuridine (BrdU) substituted for T
Kd [3]: 0.016 nM | binding signal [4]: > 1000 fold KD relative to bFGF

B2: 06.50 (ssDNA)
DNA: GGGAGGACGATGCGGTGACGTAAGAGTGTAATCGATGCAGCCTGGCAGACGACGAGCGGGA
modifications: 5-bromo-2'-deoxyuridine (BrdU) substituted for T
Kd [5]: 0.56 nM
